Biological target: T1, GAL4 DNA binding domain (UniProt P04386 1-147)
T1 construct: Residues read through from the cloning site are not described; also called BD
Test: yeast two-hybrid, growth on SD/-Trp/-Leu/-Ade/-His; empty vector

T1 sequence (P04386 1-147 limits assumed): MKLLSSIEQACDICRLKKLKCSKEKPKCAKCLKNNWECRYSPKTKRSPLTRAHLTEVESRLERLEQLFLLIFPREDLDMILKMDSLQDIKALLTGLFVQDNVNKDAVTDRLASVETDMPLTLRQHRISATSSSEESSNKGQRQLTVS

B1: GAL4 activation domain (other, UniProt P04386 768-881, looked up)
chain: ANFNQSGNIADSSLSFTFTNSSNGPNLITTQTNSQALSQPIASSNVHDNFMNNEITASKIDDGNNSKPLSPGWTDQTAYNAFGITTGMFNTTTMDDVYNYLFDDEDTPPNPKKE
notes: Residues read through from the cloning site are not described; also called AD
Q: Does B1 bind?
A: no binding

Reference: patent publication US20250388893A1 (HUAZHONG AGRICULTURAL UNIVERSITY, published 2025)
